Legend:
[1] = target: T1, CFA/I fimbrial protein (with adhesin subunit CfaE) on ETEC strain H10407 (enterotoxigenic Escherichia coli (ETEC)) (UniProt P25734); test: cell-based or functional assay
T1 sequence (looked up): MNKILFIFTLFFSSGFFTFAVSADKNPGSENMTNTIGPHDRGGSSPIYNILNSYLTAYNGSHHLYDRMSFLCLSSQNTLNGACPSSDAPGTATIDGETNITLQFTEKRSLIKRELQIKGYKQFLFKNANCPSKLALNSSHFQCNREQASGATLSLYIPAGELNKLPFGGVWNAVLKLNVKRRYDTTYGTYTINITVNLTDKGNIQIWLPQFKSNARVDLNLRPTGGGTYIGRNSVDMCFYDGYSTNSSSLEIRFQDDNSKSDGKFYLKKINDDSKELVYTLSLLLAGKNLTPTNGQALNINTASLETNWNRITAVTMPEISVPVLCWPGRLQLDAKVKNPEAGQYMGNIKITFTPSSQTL

[2] = target: CS21 on ETEC strain #100171 (enterotoxigenic Escherichia coli (ETEC)); test: cell-based or functional assay
[3] = target: CS6 on ETEC strain #100001 (enterotoxigenic Escherichia coli (ETEC)); test: cell-based or functional assay
[4] = target: CS17 on ETEC strain (enterotoxigenic Escherichia coli (ETEC)); test: cell-based or functional assay
[5] = target: CS3 on ETEC strain #100483 (enterotoxigenic Escherichia coli (ETEC)); test: cell-based or functional assay
[6] = target: CS4 on ETEC strain (enterotoxigenic Escherichia coli (ETEC)); test: cell-based or functional assay
[7] = target: CS1 on ETEC strain #200145 (enterotoxigenic Escherichia coli (ETEC)); test: cell-based or functional assay
[8] = target: CS19 on ETEC strain #204648 (enterotoxigenic Escherichia coli (ETEC)); test: cell-based or functional assay
[9] = target: CS14 on ETEC strain #400599 (enterotoxigenic Escherichia coli (ETEC)); test: cell-based or functional assay
[10] = target: CS2 on ETEC strain #201546 (enterotoxigenic Escherichia coli (ETEC)); test: cell-based or functional assay
[11] = target: CS5 on ETEC strain #204348 (enterotoxigenic Escherichia coli (ETEC)); test: cell-based or functional assay
[12] = target: MBP-CfaE-N (recombinant N-terminal adhesin domain of CfaE fused to an MBP tag) (enterotoxigenic Escherichia coli (ETEC)) (UniProt P25734); test: SPR (Biacore T200), CfaE on CM5 chip, VHH injected, 25 C, 1:1 model

| Binder | Caco2 adhesion assay: concentration at which adhesion was inhibited [1] [µM] | MRHA IC100 [1] | MRHA IC100 [2] [µg/mL] | MRHA IC100 [3] [µg/mL] | MRHA IC100 [4] [µg/mL] | MRHA IC100 [5] [µg/mL] | MRHA IC100 [6] [µg/mL] | MRHA IC100 [7] [µg/mL] | MRHA IC100 [8] [µg/mL] | MRHA IC100 [9] [µg/mL] | MRHA IC100 [10] [µg/mL] | MRHA IC100 [11] [µg/mL] | Kd [12] [nM] | koff [12] [s⁻¹] | kon [12] [M⁻¹ s⁻¹] |
| --- | --- | --- | --- | --- | --- | --- | --- | --- | --- | --- | --- | --- | --- | --- | --- |
| dimeric 2R215 (VHH) QVQLQESGGGLVQAGGSLRLSCAASGNIFQDAEMGWYRQAPGKEREFVATIAYGGNTNYADSVKGRFTISRDNAKNTVYLQMNSLKPEDTAVYYCAVYTGVYYDRTTGGYVAFEYWGQGTQVTVSSGGGGSGGGGSGGGGSGGGGSGGGGSGGGGSQVQLQESGGGLVQAGGSLRLSCAASGNIFQDAEMGWYRQAPGKEREFVATIAYGGNTNYADSVKGRFTISRDNAKNTVYLQMNSLKPEDTAVYYCAVYTGVYYDRTTGGYVAFEYWGQGTQVTVSSHHHHHH | 1.8 | 1.25 µM |  |  |  |  |  |  |  |  |  |  |  |  |  |
| trimeric 2R215 (VHH) QVQLQESGGGLVQAGGSLRLSCAASGNIFQDAEMGWYRQAPGKEREFVATIAYGGNTNYADSVKGRFTISRDNAKNTVYLQMNSLKPEDTAVYYCAVYTGVYYDRTTGGYVAFEYWGQGTQVTVSSGGGGSGGGGSGGGGSQVQLQESGGGLVQAGGSLRLSCAASGNIFQDAEMGWYRQAPGKEREFVATIAYGGNTNYADSVKGRFTISRDNAKNTVYLQMNSLKPEDTAVYYCAVYTGVYYDRTTGGYVAFEYWGQGTQVTVSSGGGGSGGGGSGGGGSQVQLQESGGGLVQAGGSLRLSCAASGNIFQDAEMGWYRQAPGKEREFVATIAYGGNTNYADSVKGRFTISRDNAKNTVYLQMNSLKPEDTAVYYCAVYTGVYYDRTTGGYVAFEYWGQGTQVTVSSHHHHHH | 0.567 | 2.5 µM |  |  |  |  |  |  |  |  |  |  |  |  |  |
| VHH antibody 1H4 (monomeric) (VHH) VHH: EVQLVESGGGLVQAGGSLRLSCAASSRTFNHYNIGWFRQAPGKEREFAAAITWNGRSTLYADSVKGRFTISRDNAKNTVYLQMNSLKPEDTAVYYCATLTTWEHKWEYNSQGQGTQVTVSS |  | 200 µg/mL | 25 | 25 | 6.25 | 100 | 25 | 100 | 100 | 100 | 100 | 3.12 | 18.3 | 0.000513 | 28100 |
